The text below walks through data of publication PMC5159498, “IQGAP1 Interaction with RHO Family Proteins Revisited” (The Journal of Biological Chemistry, 2016).

Substitutions are numbered along the chain they refer to. Names may count otherwise.

B1: IQGAP1 GRD2 (aa 962-1345) (domain or fragment, human, UniProt P46940 962-1345, looked up)
chain: SKEKREKLEAYQHLFYLLQTNPTYLAKLIFQMPQNKSTKFMDSVIFTLYNYASNQREEYLLLRLFKTALQEEIKSKVDQIQEIVTGNPTVIKMVVSFNRGARGQNALRQILAPVVKEIMDDKSLNIKTDPVDIYKSWVNQMESQTGEASKLPYDVTPEQALAHEEVKTRLDSSIRNMRAVTDKFLSAIVSSVDKIPYGMRFIAKVLKDSLHEKFPDAGEDELLKIIGNLLYYRYMNPAIVAPDAFDIIDLSAGGQLTTDQRRNLGSIAKMLQHAASNKMFLGDNAHLSIINEYLSQSYQKFRRFFQTACDVPELQDKFNVDEYSDLVTLTKPVIYISIGEIINTHTLLLDHQDAIAPEHNDPIHELLDDLGEVPTIESLIGESS
notes: human IQGAP1, GAP-related domain fragment GRD2, aa 962-1345, from the vector pMCSG7; source: E. coli (pLysS BL21(DE3), CodonPlusRIL or BL21(Rosetta)), purified (Ni-NTA, gel filtration)
B2: IQGAP1 RGCT (aa 1276-1575) (domain or fragment, human, UniProt P46940 1276-1575, looked up)
chain: QDKFNVDEYSDLVTLTKPVIYISIGEIINTHTLLLDHQDAIAPEHNDPIHELLDDLGEVPTIESLIGESSGNLNDPNKEALAKTEVSLTLTNKFDVPGDENAEMDARTILLNTKRLIVDVIRFQPGETLTEILETPATSEQEAEHQRAMQRRAIRDAKTPDKMKKSKSVKEDSNLTLQEKKEKIQTGLKKLTELGTVDPKNKYQELINDIARDIRNQRRYRQRRKAELVKLQQTYAALNSKATFYGEQVDYYKSYIKTCLDNLASKGKVSKKPREMKGKKSKKISLKYTAARLHEKGVLL
notes: human IQGAP1, RASGAP C-terminal domain, aa 1276-1575; source: E. coli (pLysS BL21(DE3), CodonPlusRIL or BL21(Rosetta)), purified
B3: IQGAP1 GRD1-RGCT wild type (aa 877-1558) (domain or fragment, human, UniProt P46940 877-1558, looked up)
chain: DQSDQDFQEELDLMKMREEVITLIRSNQQLENDLNLMDIKIGLLVKNKITLQDVVSHSKKLTKKNKEQLSDMMMINKQKGGLKALSKEKREKLEAYQHLFYLLQTNPTYLAKLIFQMPQNKSTKFMDSVIFTLYNYASNQREEYLLLRLFKTALQEEIKSKVDQIQEIVTGNPTVIKMVVSFNRGARGQNALRQILAPVVKEIMDDKSLNIKTDPVDIYKSWVNQMESQTGEASKLPYDVTPEQALAHEEVKTRLDSSIRNMRAVTDKFLSAIVSSVDKIPYGMRFIAKVLKDSLHEKFPDAGEDELLKIIGNLLYYRYMNPAIVAPDAFDIIDLSAGGQLTTDQRRNLGSIAKMLQHAASNKMFLGDNAHLSIINEYLSQSYQKFRRFFQTACDVPELQDKFNVDEYSDLVTLTKPVIYISIGEIINTHTLLLDHQDAIAPEHNDPIHELLDDLGEVPTIESLIGESSGNLNDPNKEALAKTEVSLTLTNKFDVPGDENAEMDARTILLNTKRLIVDVIRFQPGETLTEILETPATSEQEAEHQRAMQRRAIRDAKTPDKMKKSKSVKEDSNLTLQEKKEKIQTGLKKLTELGTVDPKNKYQELINDIARDIRNQRRYRQRRKAELVKLQQTYAALNSKATFYGEQVDYYKSYIKTCLDNLASKGKVSKKPREMKGKKSKK
notes: human IQGAP1, GRD and RGCT domains, lacks the last 99 amino acids, aa 877-1558; also called GRD1-RGCT^WT; IQGAP1^877-1558
B4: GST-fused IQGAP1 RGCT-CT (aa 1276-1657) (domain or fragment, human, UniProt P46940 1276-1657, looked up)
chain: QDKFNVDEYSDLVTLTKPVIYISIGEIINTHTLLLDHQDAIAPEHNDPIHELLDDLGEVPTIESLIGESSGNLNDPNKEALAKTEVSLTLTNKFDVPGDENAEMDARTILLNTKRLIVDVIRFQPGETLTEILETPATSEQEAEHQRAMQRRAIRDAKTPDKMKKSKSVKEDSNLTLQEKKEKIQTGLKKLTELGTVDPKNKYQELINDIARDIRNQRRYRQRRKAELVKLQQTYAALNSKATFYGEQVDYYKSYIKTCLDNLASKGKVSKKPREMKGKKSKKISLKYTAARLHEKGVLLEIEDLQVNQFKNVIFEISPTEEVGDFEVKAKFMGVQMETFMLHYQDLLQLQYEGVAVMKLFDRAKVNVNLLIFLLNKKFYGK
notes: human IQGAP1, RGCT and CT domains, aa 1276-1657; source: E. coli (pLysS BL21(DE3), CodonPlusRIL or BL21(Rosetta)), purified; not shown: GST, N-terminal, kept
B5: IQGAP1 GRD1-RGCT S1441E (aa 877-1558) (domain or fragment)
chain: B3 chain with S565E
notes: human IQGAP1 aa 877-1558 with the phosphomimetic mutation S1441E, from the vector pET46 EkLIC; source: E. coli (pLysS BL21(DE3), CodonPlusRIL or BL21(Rosetta)), purified (Ni-NTA, gel filtration)
B6: IQGAP1 GRD1-RGCT S1443E (aa 877-1558) (domain or fragment)
chain: B3 chain with S567E
notes: human IQGAP1 aa 877-1558 with the phosphomimetic mutation S1443E (printed as S1143E in the methods, S1443E everywhere else), from the vector pET46 EkLIC; source: E. coli (pLysS BL21(DE3), CodonPlusRIL or BL21(Rosetta)), purified (Ni-NTA, gel filtration)
B7: IQGAP1 GRD1-CT (aa 863-1657) (domain or fragment)
chain: DPPMVVVRKFVHLLDQSDQDFQEELDLMKMREEVITLIRSNQQLENDLNLMDIKIGLLVKNKITLQDVVSHSKKLTKKNKEQLSDMMMINKQKGGLKALSKEKREKLEAYQHLFYLLQTNPTYLAKLIFQMPQNKSTKFMDSVIFTLYNYASNQREEYLLLRLFKTALQEEIKSKVDQIQEIVTGNPTVIKMVVSFNRGARGQNALRQILAPVVKEIMDDKSLNIKTDPVDIYKSWVNQMESQTGEASKLPYDVTPEQALAHEEVKTRLDSSIRNMRAVTDKFLSAIVSSVDKIPYGMRFIAKVLKDSLHEKFPDAGEDELLKIIGNLLYYRYMNPAIVAPDAFDIIDLSAGGQLTTDQRRNLGSIAKMLQHAASNKMFLGDNAHLSIINEYLSQSYQKFRRFFQTACDVPELQDKFNVDEYSDLVTLTKPVIYISIGEIINTHTLLLDHQDAIAPEHNDPIHELLDDLGEVPTIESLIGESSGNLNDPNKEALAKTEVSLTLTNKFDVPGDENAEMDARTILLNTKRLIVDVIRFQPGETLTEILETPATSEQEAEHQRAMQRRAIRDAKTPDKMKKSKSVKEDSNLTLQEKKEKIQTGLKKLTELGTVDPKNKYQELINDIARDIRNQRRYRQRRKAELVKLQQTYAALNSKATFYGEQVDYYKSYIKTCLDNLASKGKVSKKPREMKGKKSKKISLKYTAARLHEKGVLLEIEDLQVNQFKNVIFEISPTEEVGDFEVKAKFMGVQMETFMLHYQDLLQLQYEGVAVMKLFDRAKVNVNLLIFLLNKKFYGK
notes: human IQGAP1, GRD, RGCT and CT domains, aa 863-1657; The GST tag was cleaved 'if needed'; also called C-terminal half of IQGAP1; C-terminal 795 amino acids of IQGAP1

One series deals with the molecule itself. In words: SEC; analytical SEC, Superdex 200 10/30, calibrated with standard proteins; 100 μM protein in 200 μl; 30 mM Tris/HCl pH 7.5, 150 mM NaCl, 5 mM MgCl2, 3 mM DTT; 0.5 ml/min.
Conditions: not given
Background: SEC sorts molecules by how far they enter the pores of the column.
One may read the stoichiometry N as a count of units in the complex or per binding partner. Take B1: the “stoichiometry N” value came out at 2. As for B2, the binding result was “binds”. In the case of B3, the “stoichiometry N” value came to 2. Regarding B4, the binding result is “binds”.

For another series, the target named is T1, RAC1 (aa 1-179) (human, UniProt P63000 1-179). Briefly: fluorescence polarisation; IQGAP1 variant titrated to mGppNHp-bound RHO protein (1 μM); equilibrium Kd (eKd), quadratic fit; 30 mM Tris/HCl pH 7.5, 150 mM NaCl, 5 mM MgCl2, 3 mM DTT, 25 °C. Conditions: both partners purified.
What is called Kd is the concentration at which binding is half-saturated. Low values mean a tighter complex, high ones a looser complex. In the case of B3, the Kd worked out at 4.6 µM. On the same count and under the same terms, next, B5: 6.7 µM; B6: 26.7 µM. Same read-out and setting: next, B7: 5.53 µM.

The target of the next series is T1, RAC1 (aa 1-179). In words: stopped-flow fluorometry; mGppNHp-bound RHO protein (0.2 μM) rapidly mixed with IQGAP1 variant (2 μM, or 2-12 μM for kon); koff by displacement with 10 μM non-fluorescent GppNHp-bound GTPase; Kd = koff/kon; 30 mM Tris-HCl pH 7.5, 10 mM KH2PO4/K2HPO4, 5 mM MgCl2, 3 mM DTT. Conditions: both partners purified.
As for B3, binding was characterised by a dissociation constant (Kd) of 2.81 µM. Same read-out and setting: next, B5: 3.21 µM.

In turn, B6 came in with a Kd of 6.26 µM. This Kd is about 2-fold higher than that of the molecule before. Still for that read-out and setting: in the case of B7 it was 0.94 µM.
